Laboratory results taken from doi:10.1101/2024.10.03.616038 (2024).

Target: SARS-CoV-2 Spike RBD, original (Wuhan) strain (SARS-CoV-2, UniProt P0DTC2)
Experiment: SPR

B1: BD55-5840 (IgG1) (antibody, V domains shown)
VH: VQLAQSGSELRKPGASVKVSCDTSGHSFTSNAIHWVRQAPGQGLEWMGWINTDTGTPTYAQGFTGRFVFSLDTSARTAYLQISSLKADDTAVFYCARERDYSDYFFDYWGQGTLVTVSS
VL: EVVMTQSPASLSVSPGERATLSCRARASLGISTDLAWYQQRPGQAPRLLIYGASTRATGIPARFSGSGSGTEFTLTISSLQSEDSAVYYCQQYSNWPLTFGGGTKVEIK
B1 gave a Kd of 0.0759 nM.

B2: LY-CoV1404 (IgG1) (antibody, V domains shown)
VH: QITLKESGPTLVKPTQTLTLTCTFSGFSLSISGVGVGWLRQPPGKALEWLALIYWDDDKRYSPSLKSRLTISKDTSKNQVVLKMTNIDPVDTATYYCAHHSISTIFDHWGQGTLVTVSS
VL: QSALTQPASVSGSPGQSITISCTATSSDVGDYNYVSWYQQHPGKAPKLMIFEVSDRPSGISNRFSGSKSGNTASLTISGLQAEDEADYYCSSYTTSSAVFGGGTKLTVL
B2 was tested, and the Kd was 0.977 nM.

B3: REGN10987 (IgG1) (antibody, V domains shown)
VH: QVQLVESGGGVVQPGRSLRLSCAASGFTFSNYAMYWVRQAPGKGLEWVAVISYDGSNKYYADSVKGRFTISRDNSKNTLYLQMNSLRTEDTAVYYCASGSDYGDYLLVYWGQGTLVTVSS
VL: QSALTQPASVSGSPGQSITISCTGTSSDVGGYNYVSWYQQHPGKAPKLMIYDVSKRPSGVSNRFSGSKSGNTASLTISGLQSEDEADYYCNSLTSISTWVFGGGTKLTVL
Work on B3 yielded a Kd of 14.5 nM.

B4: DXP-604 (IgG1) (antibody, V domains shown)
VH: EVQLVESGGGLIQPGGSLRLSCAASGIIVSSNYMTWVRQAPGKGLEWVSVIYSGGSTFYADSVKGRFTISRDNSKNTLYLQMSSLRAEDTAVYYCARDLGPYGMDVWGQGTTVTVSS
VL: DIQLTQSPSFLSASVGDRVTITCRASQGISSDLAWYQQKPGKAPNLLIYAASTLQSGVPSRFSGSGSGTEFTLTISSLQPEDFATYYCQQLNSDLYTFGQGTKLEIK
Work on B4 yielded a Kd of 0.214 nM.

B5: S2K146 (IgG1) (antibody, V domains shown)
VH: QVQLVESGGVVVQPGGSLRLSCAASGFTFHDHTMHWVRQAPGKGLEWVSLITWNGGTIHYSDSVKGRFTISRDNSKNSLYLQMNSLRTEDTALYYCAKDLGRGGWYLPSDAWGQGTLVTVSS
VL: not shown
B5 was tested, and the Kd was 0.0457 nM.
